Source: publication PMC4110032, “Crystal Structure of the Stress-Inducible Human Heat Shock Protein 70 Substrate-Binding Domain in Complex with Peptide Substrate” (PLoS ONE, 2014)

Target: T1, human HSP70 substrate-binding domain (residues 386–616) (human, UniProt P0DMV8 386-616)
T1 construct: Cloned into pET25 between NdeI and XhoI; The His6 tag was retained for crystallisation; A selenomethionine-derivatised form was used for phasing; also called HSP70-SBD; HSP70 SBD; source: E. coli BL21 Star (DE3), purified (Ni-NTA; size-exclusion chromatography when necessary); not shown: His6, N-terminal, kept
Assay: crystal structure; co-crystallised by hanging drop vapour diffusion; 5 mM NRLLLTG mixed with 400 µM HSP70 (386–616), preheated to 42°C for 15 min and cooled to room temperature; 0.1 M Bis-Tris pH 5.5, 0.2 M Li2SO4, PEG3350; 2 Å, space group C2, two complexes per asymmetric unit
Details: both partners purified

T1 sequence (P0DMV8 386-616): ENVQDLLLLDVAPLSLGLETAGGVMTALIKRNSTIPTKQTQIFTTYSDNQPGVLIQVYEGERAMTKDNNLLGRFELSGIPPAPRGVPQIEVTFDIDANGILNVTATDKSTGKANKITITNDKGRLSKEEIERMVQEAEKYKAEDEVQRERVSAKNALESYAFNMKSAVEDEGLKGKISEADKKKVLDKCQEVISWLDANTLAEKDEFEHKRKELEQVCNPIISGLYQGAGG

B1: NRLLLTG peptide (peptide)
peptide: NRLLLTG
notes: hepta-peptide model substrate used in earlier DnaK structural analyses; Residues of the peptide are numbered 1-7 with the suffix p (Leu5p); also called hepta-peptide model substrate; NRLLLTG substrate peptide; source: bought: Biomatik
**Q.** Does B1 bind?
**A.** Result: binds
